Test system: ACLYana-3-pHis peptide (AGAG-3-pHis-AGAG)
Experiment: BLI binding kinetics of 3-pHis Fabs with affinity-purified pHis peptide
Protocol: Biolayer interferometry (BLI) studies were performed to determine the relative affinity of pHis Fabs to in situ phosphorylated His peptides versus the phosphomimetic substrates. The N-terminally biotinylated peptides were immobilized on streptavidin biosensors and the rate of association (ka) and dissociation (kd) were determined by varying the pHis Fab concentration. Equilibrium dissociation constants (KD) were determined by fitting the experimental data to a 1:1 Langmuir binding model. ACLYana-1-pTza and ACLYana-3-pTza peptides were used to determine affinity to 1-pHis and 3-pHis Fabs, respectively (Fig. 3 A–E and Table 1). […] The two isomers were separated from each other by passing the reaction through affinity columns containing 1-pHis mAbs using SC1-1 or SC50-3 IgGs or 3-pHis mAbs using SC39-4, SC44-8, and SC56-2 IgGs. The eluates thus contained either predominantly 1-pHis or 3-pHis peptides. These peptides were used to determine the affinity to their respective isomer class of pHis Fabs (Fig. 3 F–J, Table 1, and SI Appendix, Fig. S5). […] This experimental observation is well supported by the higher number of hydrogen bonds that support the SC44-8:3-pTza interaction compared to other pHis Fabs (SI Appendix, Table S5). […] There are at least three reasons for the lower affinity of the mAbs for pHis peptides compared to pTza peptides: The continuous hydrolysis of phosphate from the pHis peptides during the course of the experiment (SI Appendix, Fig. S6), a reduction in the number of hydrogen bond interactions due to one less nitrogen in the imidazole ring compared to triazolyl ring (Fig. 4 and SI Appendix, Fig. S8), and inherently different electronic properties of the imidazole and triazolyl rings in His and Tza, respectively ([20]).
Fig. 3. Binding kinetics of pHis Fabs with cognate pTza and pHis peptides. BLI studies of immobilized peptides (ACLYana-1/3-pTza and phosphorylated ACLYana) with varying concentrations of the pHis Fabs were carried out in triplicate on an Octet Red96e instrument (FortéBio). SC1-1 (A) and SC50-3 (B) pHis Fab interaction with their ACLYana-1-pTza peptides. SC39-4 (C), SC44-8 (D), and SC56-2 (E) pHis Fabs interactions with ACLYana-3-pTza peptides. SC1-1 (F), SC50-3 (G), SC39-4 (H), SC44-8 (I), and SC56-2 (J) pHis Fabs interactions with their affinity-purified ACLYana-pHis peptides are represented, Right. The experimental data are represented in the black dashed lines and the nonlinear least-squares fitting was represented in the red continuous lines. The χ^2 for the goodness of fit is under 1.0 for the all the plots.
The binding kinetics of pHis Fabs with the peptides (pTza and pHis) were evaluated with an Octet RED96e (FortéBio). Streptavidin-coated biosensors (FortéBio) were presoaked in buffer containing 50 mM Hepes pH 8.0, 150 mM NaCl, 0.05% Tween-20, and 0.2% BSA for 15 min. The biotinylated pTza peptides or pHis peptides (20 nM) with and without phosphoramidate treatment were coated onto these streptavidin biosensors and analyzed for their binding to varying concentrations of the pHis Fabs with an association time of 120 s and dissociation time of 200 s. The entire set of experiments was repeated three times. The data were analyzed using the Octet software (FortéBio) and the rates of association and dissociation were obtained by global fitting data to the 1:1 Langmuir interaction model. […]
Peptides used in the DSF and BLI experiments were synthesized by the Salk Peptide Synthesis Core. These peptides were N-terminally biotinylated and C-terminally amidated. They were synthesized using standard Fmoc chemistry on a Gyros Protein Technologies Tribute peptide synthesizer with UV monitoring. Following the deprotection, peptides were analyzed by mass spectrometry and analytical HPLC by the Proteomics Core at Salk. The peptides were HPLC purified to 99% purity by 21st Century Biochemicals, Inc. The Fmoc-pTza’s were synthesized at 10 g scale for incorporation into the peptides. […]

[1] = BLI, affinity-purified ACLYana-3-pHis peptide, 1:1 Langmuir global fit, triplicate

B1: SC44-8: Fab of rabbit 3-pHis-specific monoclonal antibody with proclivity for GpHAGA motif (antibody, V domains shown)
VH: QSVKESGRGLVQPGGSLTLTCTASGFSIDSYGFSWVRQAPGKGLEHIGYLTAGGRAFYASWAKSRSTITRNTNENTVTLKMTSLTAADTATYFCAKLGSGNPVAIWGPGTLVTVSS
VL: QVLTQTPSFTSAAVGGTVTINCQSSQSVWRNKNLAWYQQKPGQPPKRLIYAIATLDSGVPSRFSGSGSGTQFTLTISDVQCDDAATYYCVGHYGSENDAYYAFGGGTEVVVK
A ka [1] of 93600 ± 319 M⁻¹ s⁻¹, a kd [1] of 0.0017 ± 3.32e-06 s⁻¹ and a Kd (BLI, ACLYana phosphorylated with phosphoramidate (8 h, 23 °C), 3-pHis isomer affinity-purified on 3-pHis IgG column, immobilized on streptavidin biosensors, Hepes pH 8.0, 1:1 Langmuir global fit, triplicate) of 18.2 nM were found for B1 in this work. For the same molecule, the “BLI signal (maximum) with ACLYana” value (phosphorylated ACLYana, GpHAGAG motif) was 2.0 nm and the “affinity for 3-pHis peptides, times (fold) weaker than for the 3-pTza peptide” value (ratio of BLI KD, 3-pHis versus 3-pTza peptide) was 75 times.
